Tests used:
[1] = Effects of substrate concentration and temperature on the maximum yield of trehalose; format: biochemical, Picrophilus torridus
Method: FIG. 4 is a graph which illustrates the effects of substrate concentration on the maximum yield of trehalose by Picrophilus torridus trehalose synthase. Purified enzyme was incubated with different concentrations of maltose in 50 mM sodium phosphate buffer (pH 6.0) at 45° C. Samples were collected at various intervals of reaction time and analyzed by HPLC. The symbols which indicated different concentrations of maltose are open square (□) 1 M; solid square (▪), 500 mM; solid triangle (▴), 250 mM; open rhombus (⋄), 150 mM, and open circle (◯), 50 mM.
FIG. 5 is a series of graphs illustrating the effects of temperature on the formation of trehalose (5A) and glucose (5B) from maltose (5C) by Picrophilus torridus trehalose synthase. Reaction mixtures containing purified Picrophilus torridus trehalose synthase, 150 mM maltose and pH 6.0 sodium phosphate buffer were incubated at various temperatures for 72 h. Samples were collected at various intervals and analyzed by HPLC. The symbols which indicated different reaction temperatures are open square (□) denoting temperature of 20° C.; solid square (▪) denoting temperature of 30° C.; solid triangle (▴) denoting temperature of 45° C.; and open triangle (Δ) denoting temperature of 0° C.
(§1) The amount of trehalose, glucose, and maltose after each enzymatic reaction was measured using a high performance liquid chromatography (HPLC) (SFD 2100) system equipped with an RI detector (Schambeck S F D, RI 2000) at a flow rate of 0.9 mL/min. A carbohydrate analysis column (HYPERSIL-100 Amino, Thermo Hypersil-Keystone) equilibrated with 75% acetonitrile, 24% Milli-Q water, and 1% formic acid was used. The retention times of glucose, maltose, and trehalose were 8.0, 11.2, and 12.5 min, respectively.
Effects of Substrate Concentration and Temperature on the Maximum Yield of Trehalose. The effects of the substrate concentration on the yield of trehalose by PTTS were examined at pH 6.0, 45° C., and various maltose concentrations. A maximum conversion was reached after 24 hour incubation for each reaction. The final yield of trehalose increased as the substrate concentration increased. […] Therefore, a higher maximum yield was gained at a lower temperature.

[2] = format: biochemical, Picrophilus torridus
Method: FIG. 2 is a graph which illustrates the effects of pH on the activity and stability of Picrophilus torridus trehalose synthase. The enzyme activities at various pH levels were examined at the maltose concentration of 150 mM and temperature of 45° C. for 25 min. The pH stability of Picrophilus torridus trehalose synthase enzyme was examined by measuring the residual activity of enzyme at pH 6.0 after pre-incubation in various pH levels at 45° C. for 20 min. The solid square (▪) and circle (●) notations indicate the enzyme activity under 50 mM sodium phosphate buffer (pH 6.0˜8.5) and 50 mM acetate buffer (pH 3.5˜6.0), respectively. The open square (□) and circle (◯) notations represent the pH stability under 50 mM sodium phosphate buffer (pH 6.0˜8.5) and 50 mM acetate buffer (pH 3.5˜6.0), respectively.
FIG. 3 is a graph which illustrates the effects of temperature on the activity and stability of Picrophilus torridus trehalose synthase. The enzyme activities at various temperatures were examined at the maltose concentration of 150 mM and pH 6.0 for 25 min. To examine temperature stability, the residual activity of the enzyme was measured at 45° C. after pre-incubation of the purified enzyme at different temperatures (4° C.˜100° C.) and pH 6.0 for 20 min. The solid circle (●) and open circle (◯) notations denote the enzyme activity and temperature stability, respectively, under various temperatures.
(§2) The activity of PTTS was assayed by measuring the amount of trehalose produced from maltose. The standard reaction was performed by adding 1.5 μL purified enzyme into 50 μL reaction solution containing 50 mM sodium phosphate (pH 6.0) and 150 mM maltose and incubating in a 45° C. water bath for 25 min. The assay time was under the linear range of enzyme reaction. The reaction was terminated by heating the mixture in boiling water for 15 min. One unit of enzyme activity was defined as the amount of enzyme that catalyzes the formation of 1 μmol of trehalose per min. Kinetic analysis was performed under conditions of pH 6.0 and 45° C. for 5 min in 50 mM sodium phosphate buffer containing substrate (maltose, trehalose, or maltose plus a constant 10 mM of glucose) at various concentrations. The resulting data were analyzed offline with Origin 6.0 software (Microcal, Northampton, Mass.). All experiments were carried out in duplicate or triplicate.
Effects of pH and Temperature on the Activity and Stability of Recombinant PTTS. The pH dependence of PTTS was studied at 45° C. in 50 mM acetate buffer (pH 3.5-6.0) or 50 mM phosphate buffer (pH 6.0-8.5) using 150 mM maltose as a substrate. […] The effects of temperature on PTTS activity and stability are depicted in FIG. 3. The optimum temperature was 45° C. and the enzyme maintained stability up to 60° C. at pH 6.0 for 20 min.

[3] = Kinetic analysis of PTTS with maltose or trehalose as substrate; format: biochemical, Picrophilus torridus; settings: pH 6.0, 45° C., 5 min
Method: as §2
Kinetics Analysis. Kinetic parameters of PTTS were investigated at pH 6.0 and 45° C. for 5 min using maltose or trehalose as substrate (FIG. 7). […] This kinetic data is useful for determining the baseline activity of the enzyme and enables one of skill in the art to use this activity as a criterion for the isolation or construction of variants having substantially equivalent enzymatic activity.

[4] = Enzyme assay: amount of trehalose produced from maltose by PTTS; format: biochemical, Picrophilus torridus
Method: as §2, §1

[5] = Effects of substrate concentration and temperature on the maximum yield of trehalose; format: biochemical, Picrophilus torridus; settings: 150 mM maltose, pH 6.0, 60° C., three days
[6] = 150 mM maltose, pH 6.0, 20° C., three days
[7] = 150 mM maltose, pH 6.0, 30° C., three days
[8] = 150 mM maltose, pH 6.0, 45° C., three days
[9] = 150 mM maltose, pH 6.0, 60° C., three days

B1: PTTS: recombinant Picrophilus torridus trehalose synthase with C-terminal linker and His(6)-tag (SEQ ID NO: 4), expressed in E. coli (protein, listed as Picrophilus torridus)
chain: MLDNNGLWYRDAVFYEVPVKSFYDSNNDGIGDFNGLTMKLDYLKKLGVDALWLLPFYKSPLKDDGYDISDYYSILPEYGTIDDFKNFIDTAHSMNIRVIADLVLNHVSDQHPWFIESRSSIDNPKRDWFIWSDTPEKFKEARIIFIDTEKSNWTYDPETKQYYFHRFYSSQPDLNYDNPDVRNEVKKVIRYWLDLGLDGFRADAVPYLFKRENTNCENLPETHNFFKEIRKMMDEDYPGTILLAEANQWPTETKAYFGNGDEFHMAFNFPLMPRIFIALARSDYYPIMDIIKQTLPIPDNCDWCIFLRNHDELTLEMVTDSERDIMYREYAKIPKMRLNLGIRRRLAPLADNDINTIELLNALIFSLPGTPIIYYGDEIGMGDNIYLGDRNGVRTPMQWSYDRNAGFSMADSEQLYSPVITNPNYHYESVNVEAELRLSSSLLNWMIKIIHVRKDYKELLGRGSIKFIEQGNKRVLSYIREYENQRMLCLFNLSRNPTYVELNLSDYIGLKPIEAITKAAFPRIKDDRYFITMTPRSFFWFNLIVPERDDSYDLIGEDANSRVDKLAAALEHHHHHH
[1]; [6]
  glucose content: 3.6%
  maltose content: 25.4%
  maximum conversion of maltose into trehalose: 71%
[1]; [7]
  glucose content: 4.3%
  maltose content: 27.6%
  maximum conversion of maltose into trehalose: 68%
[1]; [8]
  glucose content: 7.8%
  maltose content: 31.2%
  maximum conversion of maltose into trehalose: 61%
[1]; [9]
  glucose content: 19.2%
  maltose content: 31.3%
[1]; pH 6.0, 45° C., each maltose concentration
  incubation time to reach maximum conversion: 24 h
[1]; pH 6.0, 45° C., various maltose concentrations (50 mM to 1 M)
  maximum conversion of maltose into trehalose: around 60%
[2]; 45° C., 150 mM maltose
  activity at pH 5.0: maintained high activity
[2]; 45° C., 150 mM maltose, acetate or phosphate buffer
  optimum pH: 6.0
[2]; pH 5.0
  activity maintained at pH 5.0: 80%
[2]; pH 6.0, 150 mM maltose
  optimum temperature: 45 °C
[3]
  enzyme efficiency (kcat/KM) toward maltose relative to trehalose: 2.5 fold
  kcat for trehalose relative to maltose: twofold higher
[4]; purified recombinant His-tag PTTS after Ni-column, 1 unit = 1 μmol trehalose per min
  specific activity: 80 units per mg of protein
[4]; recombinant PTTS, estimated
  specific activity toward maltose: about 80 units/mg protein
[4]; toward maltose
  specific activity as share of that of T. aquaticus trehalose synthase: about 60%
  specific activity relative to M. smegmatis trehalose synthase: about 2.8 fold
  specific activity relative to P. stutzeri CJ38 trehalose synthase: roughly equal
  specific activity relative to Pimelobacter trehalose synthase: about 4.7 fold
[5]
  maximum conversion of maltose into trehalose: 50%
